# Test results published in patent US20260015399A1 (Boehringer Ingelheim, published 2026).
# *1 amine or outer side, *2 acyl side, *3 side chain or, on linkers, in order; H or OH if unused. Side-chain parts run from the residue outwards. The star is where a group is joined. C18 diacid = O=C(O)CCCCCCCCCCCCCCCCC(=O)*; γGlu = O=C(O)[C@H](CCC(=O)[*:2])N[*:1]; Isovaleryl = CC(C)CC(=O)*; Ahx = NCCCCCC(=O)O
# T1: human NPY2 receptor (human, UniProt P49146 1-381)
# T1 construct: whole, on cells; also called hNPY2-R; hNPY2R
# T1 sequence (looked up): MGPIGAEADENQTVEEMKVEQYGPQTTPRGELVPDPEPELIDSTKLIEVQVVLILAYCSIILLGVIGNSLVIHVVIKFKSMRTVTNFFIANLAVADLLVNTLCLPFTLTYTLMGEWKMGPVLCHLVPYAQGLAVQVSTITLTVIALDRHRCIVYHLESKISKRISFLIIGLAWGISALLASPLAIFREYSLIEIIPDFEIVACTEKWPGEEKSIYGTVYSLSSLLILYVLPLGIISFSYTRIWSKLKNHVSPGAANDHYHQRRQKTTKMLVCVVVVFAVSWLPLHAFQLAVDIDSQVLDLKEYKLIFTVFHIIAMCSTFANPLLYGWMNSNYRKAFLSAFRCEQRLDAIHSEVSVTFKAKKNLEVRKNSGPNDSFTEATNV
# Target: T1, human NPY2 receptor
# Assay: RLB: displacement of 125I-PYY(1-36) from hNPY2R membranes
row,Ki [nM],Binder
1,6.42,Isovaleryl-APEK([Ahx-γGlu-C18 diacid])PEEDATPEELQRYYVELRHYYNWLTRQRY-NH2 (SMILES CC(C)CC(=O)N[C@@H](C)C(=O)N1CCC[C@H]1C(=O)N[C@@H](CCC(=O)O)C(=O)N[C@@H](CCCCNC(=O)CCCCCNC(=O)CC[C@H](NC(=O)CCCCCCCCCCCCCCCCC(=O)O)C(=O)O)C(=O)N1CCC[C@H]1C(=O)N[C@@H](CCC(=O)O)C(=O)N[C@@H](CCC(=O)O)C(=O)N[C@@H](CC(=O)O)C(=O)N[C@@H](C)C(=O)N[C@H](C(=O)N1CCC[C@H]1C(=O)N[C@@H](CCC(=O)O)C(=O)N[C@@H](CCC(=O)O)C(=O)N[C@@H](CC(C)C)C(=O)N[C@@H](CCC(N)=O)C(=O)N[C@@H](CCCNC(=N)N)C(=O)N[C@@H](Cc1ccc(O)cc1)C(=O)N[C@@H](Cc1ccc(O)cc1)C(=O)N[C@H](C(=O)N[C@@H](CCC(=O)O)C(=O)N[C@@H](CC(C)C)C(=O)N[C@@H](CCCNC(=N)N)C(=O)N[C@@H](Cc1c[nH]cn1)C(=O)N[C@@H](Cc1ccc(O)cc1)C(=O)N[C@@H](Cc1ccc(O)cc1)C(=O)N[C@@H](CC(N)=O)C(=O)N[C@@H](Cc1c[nH]c2ccccc12)C(=O)N[C@@H](CC(C)C)C(=O)N[C@H](C(=O)N[C@@H](CCCNC(=N)N)C(=O)N[C@@H](CCC(N)=O)C(=O)N[C@@H](CCCNC(=N)N)C(=O)N[C@@H](Cc1ccc(O)cc1)C(N)=O)[C@@H](C)O)C(C)C)[C@@H](C)O) [Compound 110]
2,4.28,Isovaleryl-APEK([Ahx-γGlu-C18 diacid])PEEDAEPEEIQRYYVSLRHYYNWLTRQRY-NH2 (SMILES CC[C@H](C)[C@H](NC(=O)[C@H](CCC(=O)O)NC(=O)[C@H](CCC(=O)O)NC(=O)[C@@H]1CCCN1C(=O)[C@H](CCC(=O)O)NC(=O)[C@H](C)NC(=O)[C@H](CC(=O)O)NC(=O)[C@H](CCC(=O)O)NC(=O)[C@H](CCC(=O)O)NC(=O)[C@@H]1CCCN1C(=O)[C@H](CCCCNC(=O)CCCCCNC(=O)CC[C@H](NC(=O)CCCCCCCCCCCCCCCCC(=O)O)C(=O)O)NC(=O)[C@H](CCC(=O)O)NC(=O)[C@@H]1CCCN1C(=O)[C@H](C)NC(=O)CC(C)C)C(=O)N[C@@H](CCC(N)=O)C(=O)N[C@@H](CCCNC(=N)N)C(=O)N[C@@H](Cc1ccc(O)cc1)C(=O)N[C@@H](Cc1ccc(O)cc1)C(=O)N[C@H](C(=O)N[C@@H](CO)C(=O)N[C@@H](CC(C)C)C(=O)N[C@@H](CCCNC(=N)N)C(=O)N[C@@H](Cc1c[nH]cn1)C(=O)N[C@@H](Cc1ccc(O)cc1)C(=O)N[C@@H](Cc1ccc(O)cc1)C(=O)N[C@@H](CC(N)=O)C(=O)N[C@@H](Cc1c[nH]c2ccccc12)C(=O)N[C@@H](CC(C)C)C(=O)N[C@H](C(=O)N[C@@H](CCCNC(=N)N)C(=O)N[C@@H](CCC(N)=O)C(=O)N[C@@H](CCCNC(=N)N)C(=O)N[C@@H](Cc1ccc(O)cc1)C(N)=O)[C@@H](C)O)C(C)C) [Compound 112]
3,2.77,Isovaleryl-APEK([Ahx-γGlu-C18 diacid])PEADASEEELQRYYVSLRHYYNWLTRQRY-NH2 (SMILES CC(C)CC(=O)N[C@@H](C)C(=O)N1CCC[C@H]1C(=O)N[C@@H](CCC(=O)O)C(=O)N[C@@H](CCCCNC(=O)CCCCCNC(=O)CC[C@H](NC(=O)CCCCCCCCCCCCCCCCC(=O)O)C(=O)O)C(=O)N1CCC[C@H]1C(=O)N[C@@H](CCC(=O)O)C(=O)N[C@@H](C)C(=O)N[C@@H](CC(=O)O)C(=O)N[C@@H](C)C(=O)N[C@@H](CO)C(=O)N[C@@H](CCC(=O)O)C(=O)N[C@@H](CCC(=O)O)C(=O)N[C@@H](CCC(=O)O)C(=O)N[C@@H](CC(C)C)C(=O)N[C@@H](CCC(N)=O)C(=O)N[C@@H](CCCNC(=N)N)C(=O)N[C@@H](Cc1ccc(O)cc1)C(=O)N[C@@H](Cc1ccc(O)cc1)C(=O)N[C@H](C(=O)N[C@@H](CO)C(=O)N[C@@H](CC(C)C)C(=O)N[C@@H](CCCNC(=N)N)C(=O)N[C@@H](Cc1c[nH]cn1)C(=O)N[C@@H](Cc1ccc(O)cc1)C(=O)N[C@@H](Cc1ccc(O)cc1)C(=O)N[C@@H](CC(N)=O)C(=O)N[C@@H](Cc1c[nH]c2ccccc12)C(=O)N[C@@H](CC(C)C)C(=O)N[C@H](C(=O)N[C@@H](CCCNC(=N)N)C(=O)N[C@@H](CCC(N)=O)C(=O)N[C@@H](CCCNC(=N)N)C(=O)N[C@@H](Cc1ccc(O)cc1)C(N)=O)[C@@H](C)O)C(C)C) [Compound 108]

# Second part, the binder before the results:
row,Binder,Ki [nM]
1,Isovaleryl-APEK([Ahx-γGlu-C18 diacid])PEEDAEPEETQRYYVSLRHYYNWLTRQRY-NH2 (SMILES CC(C)CC(=O)N[C@@H](C)C(=O)N1CCC[C@H]1C(=O)N[C@@H](CCC(=O)O)C(=O)N[C@@H](CCCCNC(=O)CCCCCNC(=O)CC[C@H](NC(=O)CCCCCCCCCCCCCCCCC(=O)O)C(=O)O)C(=O)N1CCC[C@H]1C(=O)N[C@@H](CCC(=O)O)C(=O)N[C@@H](CCC(=O)O)C(=O)N[C@@H](CC(=O)O)C(=O)N[C@@H](C)C(=O)N[C@@H](CCC(=O)O)C(=O)N1CCC[C@H]1C(=O)N[C@@H](CCC(=O)O)C(=O)N[C@@H](CCC(=O)O)C(=O)N[C@H](C(=O)N[C@@H](CCC(N)=O)C(=O)N[C@@H](CCCNC(=N)N)C(=O)N[C@@H](Cc1ccc(O)cc1)C(=O)N[C@@H](Cc1ccc(O)cc1)C(=O)N[C@H](C(=O)N[C@@H](CO)C(=O)N[C@@H](CC(C)C)C(=O)N[C@@H](CCCNC(=N)N)C(=O)N[C@@H](Cc1c[nH]cn1)C(=O)N[C@@H](Cc1ccc(O)cc1)C(=O)N[C@@H](Cc1ccc(O)cc1)C(=O)N[C@@H](CC(N)=O)C(=O)N[C@@H](Cc1c[nH]c2ccccc12)C(=O)N[C@@H](CC(C)C)C(=O)N[C@H](C(=O)N[C@@H](CCCNC(=N)N)C(=O)N[C@@H](CCC(N)=O)C(=O)N[C@@H](CCCNC(=N)N)C(=O)N[C@@H](Cc1ccc(O)cc1)C(N)=O)[C@@H](C)O)C(C)C)[C@@H](C)O) [Compound 107],5.13
2,Isovaleryl-APAK([Ahx-γGlu-C18 diacid])PEAAAEPEEIQRYYVSLRHYYNWLTRQRY-NH2 (SMILES CC[C@H](C)[C@H](NC(=O)[C@H](CCC(=O)O)NC(=O)[C@H](CCC(=O)O)NC(=O)[C@@H]1CCCN1C(=O)[C@H](CCC(=O)O)NC(=O)[C@H](C)NC(=O)[C@H](C)NC(=O)[C@H](C)NC(=O)[C@H](CCC(=O)O)NC(=O)[C@@H]1CCCN1C(=O)[C@H](CCCCNC(=O)CCCCCNC(=O)CC[C@H](NC(=O)CCCCCCCCCCCCCCCCC(=O)O)C(=O)O)NC(=O)[C@H](C)NC(=O)[C@@H]1CCCN1C(=O)[C@H](C)NC(=O)CC(C)C)C(=O)N[C@@H](CCC(N)=O)C(=O)N[C@@H](CCCNC(=N)N)C(=O)N[C@@H](Cc1ccc(O)cc1)C(=O)N[C@@H](Cc1ccc(O)cc1)C(=O)N[C@H](C(=O)N[C@@H](CO)C(=O)N[C@@H](CC(C)C)C(=O)N[C@@H](CCCNC(=N)N)C(=O)N[C@@H](Cc1c[nH]cn1)C(=O)N[C@@H](Cc1ccc(O)cc1)C(=O)N[C@@H](Cc1ccc(O)cc1)C(=O)N[C@@H](CC(N)=O)C(=O)N[C@@H](Cc1c[nH]c2ccccc12)C(=O)N[C@@H](CC(C)C)C(=O)N[C@H](C(=O)N[C@@H](CCCNC(=N)N)C(=O)N[C@@H](CCC(N)=O)C(=O)N[C@@H](CCCNC(=N)N)C(=O)N[C@@H](Cc1ccc(O)cc1)C(N)=O)[C@@H](C)O)C(C)C) [Compound 111],2.14
3,Isovaleryl-APEK([Ahx-γGlu-C18 diacid])PEEDLTPEELQRYYVSLRHYYNWLTRQRY-NH2 (SMILES CC(C)CC(=O)N[C@@H](C)C(=O)N1CCC[C@H]1C(=O)N[C@@H](CCC(=O)O)C(=O)N[C@@H](CCCCNC(=O)CCCCCNC(=O)CC[C@H](NC(=O)CCCCCCCCCCCCCCCCC(=O)O)C(=O)O)C(=O)N1CCC[C@H]1C(=O)N[C@@H](CCC(=O)O)C(=O)N[C@@H](CCC(=O)O)C(=O)N[C@@H](CC(=O)O)C(=O)N[C@@H](CC(C)C)C(=O)N[C@H](C(=O)N1CCC[C@H]1C(=O)N[C@@H](CCC(=O)O)C(=O)N[C@@H](CCC(=O)O)C(=O)N[C@@H](CC(C)C)C(=O)N[C@@H](CCC(N)=O)C(=O)N[C@@H](CCCNC(=N)N)C(=O)N[C@@H](Cc1ccc(O)cc1)C(=O)N[C@@H](Cc1ccc(O)cc1)C(=O)N[C@H](C(=O)N[C@@H](CO)C(=O)N[C@@H](CC(C)C)C(=O)N[C@@H](CCCNC(=N)N)C(=O)N[C@@H](Cc1c[nH]cn1)C(=O)N[C@@H](Cc1ccc(O)cc1)C(=O)N[C@@H](Cc1ccc(O)cc1)C(=O)N[C@@H](CC(N)=O)C(=O)N[C@@H](Cc1c[nH]c2ccccc12)C(=O)N[C@@H](CC(C)C)C(=O)N[C@H](C(=O)N[C@@H](CCCNC(=N)N)C(=O)N[C@@H](CCC(N)=O)C(=O)N[C@@H](CCCNC(=N)N)C(=O)N[C@@H](Cc1ccc(O)cc1)C(N)=O)[C@@H](C)O)C(C)C)[C@@H](C)O) [Compound 109],14
